From publication PMC11922769

Biological target: T1, His-MBP-SPO11;TOP6BL-Flag (Mus musculus;Mus musculus, UniProt Q9WTK8;J3QMY9 1-396;1-579, |)
T1 sequence 1: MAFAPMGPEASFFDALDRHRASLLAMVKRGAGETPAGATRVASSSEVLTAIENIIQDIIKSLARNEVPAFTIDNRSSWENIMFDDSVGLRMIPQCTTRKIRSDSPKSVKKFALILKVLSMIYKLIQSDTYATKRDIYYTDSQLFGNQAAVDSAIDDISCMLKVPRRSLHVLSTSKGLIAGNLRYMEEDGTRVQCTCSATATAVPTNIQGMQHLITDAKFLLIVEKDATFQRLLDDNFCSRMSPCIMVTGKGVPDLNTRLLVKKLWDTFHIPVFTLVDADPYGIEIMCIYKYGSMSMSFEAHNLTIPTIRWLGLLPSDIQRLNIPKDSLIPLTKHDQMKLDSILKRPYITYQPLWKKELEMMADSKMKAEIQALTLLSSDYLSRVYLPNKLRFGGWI
T1 sequence 2: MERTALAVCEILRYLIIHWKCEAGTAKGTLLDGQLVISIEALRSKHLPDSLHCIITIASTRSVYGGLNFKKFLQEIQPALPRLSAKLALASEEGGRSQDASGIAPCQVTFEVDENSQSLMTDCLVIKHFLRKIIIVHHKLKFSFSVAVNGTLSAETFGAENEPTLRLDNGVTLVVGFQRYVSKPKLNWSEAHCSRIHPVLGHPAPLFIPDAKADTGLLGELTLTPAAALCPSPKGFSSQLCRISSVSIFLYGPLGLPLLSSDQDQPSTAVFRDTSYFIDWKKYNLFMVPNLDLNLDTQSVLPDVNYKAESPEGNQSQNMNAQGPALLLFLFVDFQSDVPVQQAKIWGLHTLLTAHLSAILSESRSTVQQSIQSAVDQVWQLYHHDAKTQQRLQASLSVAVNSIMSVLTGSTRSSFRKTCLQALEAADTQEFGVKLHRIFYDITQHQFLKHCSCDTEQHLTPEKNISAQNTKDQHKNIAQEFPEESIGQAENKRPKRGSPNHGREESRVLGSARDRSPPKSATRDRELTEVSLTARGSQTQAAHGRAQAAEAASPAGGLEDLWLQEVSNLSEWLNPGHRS
Assay: EMSA

B1: 46bp dsDNA, double 5' overhang (dsDNA)
DNA 1: TAGACGTCCTCGCATCAAGATGCTGCTGCCATCTTATATTTTCTATAC
DNA 2: TAGTATAGAAAATATAAGATGGCAGCAGCATCTTGATGCGAGGACGTC
- Kd: 20.8 ± 0.39 nM
